Reference: PMC4148193, “Chromatin Insulator Factors Involved in Long-Range DNA Interactions and Their Role in the Folding of the Drosophila Genome” (PLoS Genetics, 2014)

Key:
CP190 = molecular target: T1, CP190 (Drosophila, UniProt Q24478 1-1096); experiment: fluorescence anisotropy; Hill n=2±0.3; 20 uM ZnSO4; FA/FCS: 30 mM Tris/HCl pH 7.5, 100 mM NaCl, 20 uM ZnSO4, 5 mM mercaptoethanol, 0.01 mg/ml BSA, 0.004% Tween20, 2.5 nM DNA; EMSA: 150 mM NaCl, 30 mM Tris/HCl pH; settings: protein: recombinant; tags: N-term 6xHis; blunt
T1 sequence: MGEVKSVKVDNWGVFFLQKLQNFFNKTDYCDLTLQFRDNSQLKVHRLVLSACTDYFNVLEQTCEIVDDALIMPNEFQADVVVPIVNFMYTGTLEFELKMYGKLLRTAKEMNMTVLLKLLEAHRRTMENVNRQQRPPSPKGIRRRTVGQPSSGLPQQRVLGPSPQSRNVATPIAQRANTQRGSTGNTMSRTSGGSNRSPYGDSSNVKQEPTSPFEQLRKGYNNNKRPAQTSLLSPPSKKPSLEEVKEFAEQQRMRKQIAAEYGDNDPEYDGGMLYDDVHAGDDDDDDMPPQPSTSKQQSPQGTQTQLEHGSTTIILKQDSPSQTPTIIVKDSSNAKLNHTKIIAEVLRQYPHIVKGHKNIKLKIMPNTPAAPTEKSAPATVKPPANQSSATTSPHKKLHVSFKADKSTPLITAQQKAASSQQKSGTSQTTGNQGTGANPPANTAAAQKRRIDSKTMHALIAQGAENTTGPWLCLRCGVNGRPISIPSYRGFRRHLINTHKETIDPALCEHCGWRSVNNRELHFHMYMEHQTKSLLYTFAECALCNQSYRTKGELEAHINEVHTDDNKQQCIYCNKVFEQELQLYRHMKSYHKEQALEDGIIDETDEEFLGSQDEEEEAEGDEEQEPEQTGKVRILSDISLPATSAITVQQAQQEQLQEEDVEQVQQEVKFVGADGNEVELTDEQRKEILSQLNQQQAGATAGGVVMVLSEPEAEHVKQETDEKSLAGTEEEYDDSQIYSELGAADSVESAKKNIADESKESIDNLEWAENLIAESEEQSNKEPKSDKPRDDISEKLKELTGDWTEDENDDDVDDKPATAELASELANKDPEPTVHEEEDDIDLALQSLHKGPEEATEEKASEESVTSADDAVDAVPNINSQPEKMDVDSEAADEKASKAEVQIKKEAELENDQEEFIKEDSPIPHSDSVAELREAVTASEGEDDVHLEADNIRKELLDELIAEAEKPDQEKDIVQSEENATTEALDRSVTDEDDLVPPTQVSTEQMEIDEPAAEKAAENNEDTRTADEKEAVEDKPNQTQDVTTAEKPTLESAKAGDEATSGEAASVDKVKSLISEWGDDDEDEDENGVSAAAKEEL

BEAF32 (BEAF32B);CP190-C = molecular target: T2, BEAF32 (BEAF32B);CP190-C (Drosophila;Drosophila, UniProt Q94513;Q24478 1-282;599-1096, |); experiment: FCS/PIE-FCCS; 400 nM BEAF32, 50 nM CP190-C; diffusion time slightly decreased, BEAF32 stays bound, no bridging; FA/FCS: 30 mM Tris/HCl pH 7.5, 100 mM NaCl, 20 uM ZnSO4, 5 mM mercaptoethanol, 0.01 mg/ml BSA, 0.004% Tween20, 2.5 nM DNA; EMSA: 150 mM NaCl, 30 mM Tris/HCl pH; settings: protein: recombinant;recombinant; tags: N-term MBP; C-term 6xHis;N-term 6xHis; blunt
T2 sequence 1: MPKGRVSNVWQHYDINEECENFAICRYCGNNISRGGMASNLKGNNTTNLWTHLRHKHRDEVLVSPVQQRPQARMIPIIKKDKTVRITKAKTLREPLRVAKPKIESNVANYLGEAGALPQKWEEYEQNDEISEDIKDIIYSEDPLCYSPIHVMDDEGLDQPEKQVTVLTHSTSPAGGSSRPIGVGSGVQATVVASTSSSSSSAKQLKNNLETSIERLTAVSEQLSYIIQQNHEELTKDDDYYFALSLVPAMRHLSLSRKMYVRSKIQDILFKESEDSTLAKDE
T2 sequence 2: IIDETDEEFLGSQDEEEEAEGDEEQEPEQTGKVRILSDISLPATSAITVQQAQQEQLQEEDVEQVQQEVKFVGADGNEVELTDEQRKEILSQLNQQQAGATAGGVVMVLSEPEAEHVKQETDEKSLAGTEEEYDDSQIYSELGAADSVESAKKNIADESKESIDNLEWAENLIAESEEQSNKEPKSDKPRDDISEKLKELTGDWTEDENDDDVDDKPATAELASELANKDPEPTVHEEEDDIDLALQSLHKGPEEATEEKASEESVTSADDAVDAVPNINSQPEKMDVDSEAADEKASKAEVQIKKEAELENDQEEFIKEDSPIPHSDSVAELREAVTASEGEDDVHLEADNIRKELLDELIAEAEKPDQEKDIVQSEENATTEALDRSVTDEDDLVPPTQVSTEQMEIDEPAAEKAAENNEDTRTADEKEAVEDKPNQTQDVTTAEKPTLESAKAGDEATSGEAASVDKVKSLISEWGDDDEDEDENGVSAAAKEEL

[1] = molecular target: T3, BEAF32 (BEAF32B);Chromator-C (Drosophila;Drosophila, UniProt Q94513;Q86BS3 1-282;601-926, |); experiment: FCS/PIE-FCCS; 800 nM BEAF32, 100 nM Chromator-C; diffusion time slightly decreased, BEAF32 stays bound, no bridging; FA/FCS: 30 mM Tris/HCl pH 7.5, 100 mM NaCl, 20 uM ZnSO4, 5 mM mercaptoethanol, 0.01 mg/ml BSA, 0.004% Tween20, 2.5 nM DNA; EMSA: 150 mM NaCl, 30 mM Tris/HCl pH; settings: protein: recombinant;recombinant; tags: N-term MBP; C-term 6xHis;N-term 6xHis; blunt
T3 sequence 1: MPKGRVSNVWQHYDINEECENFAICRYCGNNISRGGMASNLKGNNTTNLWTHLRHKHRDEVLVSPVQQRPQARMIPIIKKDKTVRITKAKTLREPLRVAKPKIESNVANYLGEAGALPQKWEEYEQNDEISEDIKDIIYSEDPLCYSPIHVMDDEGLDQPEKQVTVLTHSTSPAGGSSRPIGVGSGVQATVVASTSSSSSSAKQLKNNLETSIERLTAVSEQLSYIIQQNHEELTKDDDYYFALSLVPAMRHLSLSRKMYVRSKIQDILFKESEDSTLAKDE
T3 sequence 2: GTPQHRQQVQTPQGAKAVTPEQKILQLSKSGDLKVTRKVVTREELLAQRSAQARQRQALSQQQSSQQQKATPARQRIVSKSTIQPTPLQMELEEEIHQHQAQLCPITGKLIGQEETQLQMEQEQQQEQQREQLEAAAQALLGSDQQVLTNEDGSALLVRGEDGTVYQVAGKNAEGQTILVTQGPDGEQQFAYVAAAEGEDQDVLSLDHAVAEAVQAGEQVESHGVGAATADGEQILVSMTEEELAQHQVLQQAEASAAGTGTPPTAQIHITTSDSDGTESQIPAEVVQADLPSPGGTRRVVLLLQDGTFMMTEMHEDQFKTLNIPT

B1: DNAS (dsDNA)
DNA 1: AGAAGTCAGCGCGATAGCATCGATATTTTCGTGACACGCTTGTCATCCGATAGGTAGT
DNA 2: ACTACCTATCGGATGACAAGCGTGTCACGAAAATATCGATGCTATCGCGCTGACTTCT
CP190
  Kd: 109 ± 5 nM
BEAF32 (BEAF32B);CP190-C
  binding result: binds
[1]
  binding result: binds
